Target: high-affinity binding sites and low-affinity sites for VEGF165 on the SK-MEL-28 cell line (human (endogenous in SK-MEL-28))
Test: radioligand binding; radio-receptor assay with [125I]-labeled VEGF165 on SK-MEL-28 cells; two classes of sites; data not shown

KD, high-affinity sites: 0.13 nM
KD, low-affinity sites: 4.1 nM
Substance: Recombinant Human VEGF165 (from UniProt P15692-4 1-191) (ligand)
